The values below come from the supplement of paper PMC10567573.

The series is described as follows: protein stability index of a GFP-peptide fusion (GPS, HEK-293T) (PSI 1-6); higher = more stable.
The mark [1] stands for this setting: treatment: DMSO, c terminus: a fixed tail appended.
Where [2] appears, read: treatment: MLN4924 1 uM, 8 h, c terminus: a fixed tail appended.

± gives the standard deviation.
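Also: 24-mer peptide tiles fused after GFP, lentivirally expressed, FACS-sorted into six equal bins by GFP/DsRed ratio, decoded by Illumina sequencing, PSI is the read-weighted mean bin number.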

With TNLTVTMDQLQGLGSDYEQPLEVK [CDC25A], the protein stability index under setting [1] stood at 4.61 ± 0.16 and the protein stability index under setting [2] was determined as 4.69 ± 0.24. The matching figures for TNSTPLRAACFDGHLEIVKYLVEH [FEM1C]: 2.28 ± 0.49 and 2.39 ± 0.55. On the same counts, the results for TPEEVIWEALNMMGLYDGMEHLIY [MAGEA10] are 2.49 ± 0.37 and 2.03 ± 0.055. The matching figures for TPEVAAAPKPDAAPSIDLFSTDAF [SNAP91]: 4.75 ± 0.23 and 4.75 ± 0.12. Take TPPETKPDPPVNFLRQKVLSLPLP [PCMTD2]: the protein stability index by setting is: under setting [1], 3.74 ± 0.24; under setting [2], 3.85 ± 0.22. Consider TPRSPEGTTEAATQDGKEQPELPC [PXN], for which the protein stability index is, setting by setting: under setting [1], 5.38 ± 0.22; under setting [2], 5.36 ± 0.23. The matching figures for TQQTGTVRFDGYVIDGATALWCAA [FEM1B]: 2.3 ± 0.11 and 2.22 ± 0.34. The matching figures for TRGIAKIISAHIHPVCSLCWSRDG [RBBP5]: 2.45 ± 0.44 and 2.04 ± 0.19.

Regarding TRIFTEDRFAQDSEMKKCSDYESI [PPEF2], the protein stability index was found to be 4.42 ± 0.098 under setting [1] and 4.25 ± 0.18 under setting [2].

TRQKKNLPDSPLRFDGLPAVLGFP [TRIM15]: the protein stability index runs as follows: under setting [1], 2.85 ± 0.3; under setting [2], 2.92 ± 0.3.

Regarding TSGGLLSEAPNEKLFFVDTGSKEK [NOP53], the protein stability index reads like this: under setting [1], 4.92 ± 0.25; under setting [2], 4.84 ± 0.68. For the sequence TSIQWKNHDQNNHNTDRSSHKDSM [EDNRA], the protein stability index is 5.05 ± 0.12 under setting [1] and 5.14 ± 0.2 under setting [2]. On the same counts, the results for TSVFQKKLCTAHMCSTLEHNCAHF [MATN2] are 2.47 ± 0.22 and 2.8 ± 0.34. The matching figures for TTLEIHNTEERQKRQVTHFQFLSW [PTPN9]: 2.28 ± 0.41 and 2.78 ± 0.59. The matching figures for TVAGIVGSSYGILQLFSSTLVGCW [MFSD9]: 2.96 ± 0.83 and 2.89 ± 0.32. Regarding TVPADGYILELDDGNGGQFREVYV [TRIM9], the protein stability index is, setting by setting: under setting [1], 2.15 ± 0.24; under setting [2], 2.2 ± 0.6. With TVQDYQDLIDRGWRRSGKYVYKPV [ATE1], the protein stability index runs as follows: under setting [1], 2.89 ± 0.21; under setting [2], 3.03 ± 0.51. Take TVRGLHCMCTVGERLYVIGGNHFR [KLHL13]: the protein stability index was found to be 2.12 ± 0.26 under setting [1] and 2.18 ± 0.2 under setting [2]. As to VAETECRYALQLQQIQGLISSIEA [KRT13], the protein stability index runs as follows: under setting [1], 2.72 ± 0.15; under setting [2], 2.63 ± 0.2.

The sequence VARTHLTEDTPKVNADIEKVNQNQ [NSDHL] had a protein stability index under setting [1] of 5.08 ± 0.22 and a protein stability index under setting [2] of 5.06 ± 0.11. On the same counts, the results for VDFNTLKSIGSEPHEDHVFLVANF [MATN2] are 2.06 ± 0.3 and 2.18 ± 0.18. The matching figures for VEKIRKLPNTLLRKDKDVARLQDF [ANKRD40]: 2.93 ± 0.22 and 3.02 ± 0.28. The matching figures for VEPGTPPLDILAQPLEASNPALEG [DNAAF3]: 5.35 ± 0.14 and 5.36 ± 0.21.

For VFIFYYVVEEILELHIHRLRYLSS [PKD2L1], the protein stability index amounted to 2.8 ± 0.091 under setting [1] and 3.07 ± 0.51 under setting [2]. On the same counts, the results for VFLGNKRSLSERTVDKCFGRKKYD [SPATS1] are 2.82 ± 0.24 and 3.21 ± 0.16.

As to VGVRMRDVKCYQGTDIVRGCDPLV [ADAMTSL2], the protein stability index is, setting by setting: under setting [1], 3.01 ± 0.29; under setting [2], 3.09 ± 0.45.

For VHLLLKKVLFALCALNALTTTVCL [FAM189A2], the protein stability index is 3.48 ± 0.24 under setting [1] and 3.02 ± 0.36 under setting [2]. The matching figures for VIDDAKQYVYIAVMDYLPISSTST [PLD5]: 2.54 ± 0.95 and 2.76 ± 0.73.

Turning to VIKENDPSGFLQISDALIRRVHLT [TRIM9], the protein stability index is 2.07 ± 0.26 under setting [1] and 2.39 ± 0.34 under setting [2].

Under setting [2], VIRRLDETVVNRIAAGEVIQRPAN [MLH1] came in with a protein stability index of 3.92 ± 0.28. On to VKAATTEPTEVEEVVPALEPTETL [BCL2L13], for which the protein stability index runs as follows: under setting [1], 5.65 ± 0.16; under setting [2], 5.67 ± 0.14. The matching figures for VKELRPQLMTSQFISVFSNLLESK [ZER1]: 2.38 ± 0.24 and 2.61 ± 0.44.

As for VKETGYFFIYGQVLYTDKTYAMGH [TNFSF13B], the protein stability index runs as follows: under setting [1], 2.86 ± 1.5; under setting [2], 2.41 ± 0.86. The matching figures for VKVIMDALDERAKVLHEDKQTREQ [TRIM29]: 3.84 ± 0.098 and 3.84 ± 0.39. On the same counts, the results for VLKDELQLYGDAPGEVVPSGESGL [TMEM40] are 5.14 ± 0.24 and 5.26 ± 0.23. VLQERVRIFAHKIYLSTSSSKFYD [RHOBTB2] displayed a protein stability index under setting [1] of 2.6 ± 0.54 and a protein stability index under setting [2] of 2.33 ± 0.46. On the same counts, the results for VLQMWHIVDKCTELLREGRASATT [ZBTB22] are 2.19 ± 0.29 and 2.25 ± 0.41. Consider VNHRIYYKGHIPEKLETFVSLHR [FEM1C], for which the protein stability index is 2.24 ± 0.17 (treatment: DMSO, c terminus: native) and 2.305 ± 0.015 (treatment: MLN4924 1 uM, 8 h, c terminus: native).

Regarding VNPFQLQQFRADPSTASLLLCPGG [TIAF1], the protein stability index runs as follows: under setting [1], 2.93 ± 0.11; under setting [2], 2.78 ± 0.14. The matching figures for VNSNKVVMSGVKCSGTELSLAHCR [LOXL2]: 3.38 ± 1 and 2.95 ± 0.43.

For VPRPGIPPMTQAQAVSAPGILNRP [ZNF207], the protein stability index reads like this: under setting [1], 4.55 ± 0.063; under setting [2], 4.45 ± 0.086. In the case of VPWSQCLQNFLLHGTKNVTNSSSL [WSB1], the protein stability index turned out to be 2.19 ± 0.21 under setting [1] and 2.19 ± 0.24 under setting [2]. The matching figures for VRKKRFRKTQKKVPDVKEMEKSSF [TAF7L]: 4.1 ± 0.11 and 4.37 ± 0.19.

In the case of VSCLGLGTWVTFGGQITDEMAEQL [KCNAB2], the protein stability index by setting is: under setting [1], 2.32 ± 0.27; under setting [2], 2.51 ± 0.3. On the same counts, the results for VSGGSAGGYGGGVSCGFGGGAGSG [KRT13] are 3.47 ± 0.38 and 3.55 ± 0.19. On the same counts, the results for VSHPIIYRGAVYADNMEFEQCIKL [FEM1B] are 2.5 ± 0.48 and 2.5 ± 0.25. The matching figures for VSQHWATWALYNLVSVYPDKYCPL [ZER1]: 3.07 ± 0.34 and 2.74 ± 0.41.

Take VTAKTAPDVLRTKPAFIGKTNLDG [PTPRD]: the protein stability index is 3.73 ± 0.4 under setting [1] and 4.06 ± 0.35 under setting [2]. On the same counts, the results for VTGEKEEPSRSASEADSEAGELRK [PPEF2] are 5.35 ± 0.61 and 5.5 ± 0.29. Turning to VTTEQLGAKMTERGSVARPTQGPE [PXN], the protein stability index worked out at 5.35 ± 0.17 under setting [1] and 5.14 ± 0.38 under setting [2].

Take VVIDKHPVRFFVHKRPHVDFFLEV [CTDNEP1]: the protein stability index is, setting by setting: under setting [1], 2.22 ± 1.1; under setting [2], 3.06 ± 0.87. On the same counts, the results for VVKRREGPAGHSKGELAPELGEEP [POLD4] are 5.46 ± 0.087 and 5.14 ± 0.36. The matching figures for VVLPGAVSLRYSGATAASETLSGH [ADAMTS4]: 2.95 ± 0.46 and 2.96 ± 0.41.

Take VVNKYQINGLQAWLLTHLLWFANA [DHCR7]: the protein stability index runs as follows: under setting [1], 2.9 ± 0.28; under setting [2], 2.75 ± 0.34. The matching figures for VVQEPPGRASRFLQSISWDPEDFE [TLE6]: 4.24 ± 0.33 and 4.65 ± 0.45. On the same counts, the results for VVVSVAGAFRKGKSFILDFMLRYL [ATL3] are 2.55 ± 0.3 and 2.68 ± 0.34. On the same counts, the results for VYDQAVSIFYDLPQGSGFCLGQLN [SMAD6] are 2.03 ± 0.24 and 2.16 ± 0.32. As for VYLANQAKNQSDEAKEAKGSGYEK [RTP4], the protein stability index is 4.96 ± 0.52 under setting [1] and 5.08 ± 0.21 under setting [2].

On to WASTSPGTDLPLSEIPRGVRVALD [TRIM15], for which the protein stability index amounted to 3.91 ± 0.29 under setting [1] and 3.87 ± 0.26 under setting [2]. The matching figures for WCLVQICEKYLPGYYSEKLEAIQL [TBC1D10A]: 2.74 ± 0.48 and 3.57 ± 0.41. On the same counts, the results for WDERGRAAAYSPSEALLYALVHDH [ANKRD9] are 3.02 ± 0.37 and 2.95 ± 0.27. On the same counts, the results for WEQPWASEVFGPERMPPSGAARSF [PXN] are 3.73 ± 0.33 and 3.45 ± 0.11. The sequence WEWNELIPQGICPVGRSWHSLTPV [KLHDC2] yielded a protein stability index under setting [1] of 2.16 ± 0.27 and a protein stability index under setting [2] of 2.27 ± 0.21. On to WFPLHLSRILKKTVYNEMDKNRCE [EDNRA], for which the protein stability index runs as follows: under setting [1], 2.6 ± 0.84; under setting [2], 1.98 ± 0.4.

As for WGPLQDSLEHTLRVAIAHYQDDPD [TSPAN10], the protein stability index is, setting by setting: under setting [1], 3.54 ± 0.28; under setting [2], 3.69 ± 0.22. On the same counts, the results for WKDLTLSTRPEEGCSLHEEDTQRH [TCAP] are 5.08 ± 0.25 and 5.13 ± 0.28.

Sequence WKIAPAMAAGNTVIAKPSELTSVT [ALDH8A1] showed a protein stability index under setting [1] of 3.12 ± 0.41 and a protein stability index under setting [2] of 3.17 ± 0.53.

Turning to WLEDEPGRGAQGENERVRGLETGD [ZSWIM9], the protein stability index under setting [1] came to 5.49 ± 0.32 and the protein stability index under setting [2] came out at 5.48 ± 0.18. On the same counts, the results for WLNKEKGIFKIEDSAQVARLWGIR [SPDEF] are 2.63 ± 0.32 and 2.35 ± 0.17. The matching figures for WSGEVKDKNVQVVELPIVDSLHPR [FUT8]: 4.17 ± 0.17 and 4.29 ± 0.15.

WTLKLDGNLQLDCLAQGWKQYQQR [RTP4]: the protein stability index reads like this: under setting [1], 2.2 ± 0.26; under setting [2], 2.55 ± 0.26. On the same counts, the results for YAIKRSKKPLAGSVDEQNALREVY [WEE1] are 3.3 ± 0.32 and 3.16 ± 0.25.
